{
  "source": "the supplement of paper PMC9170038",
  "system": "MS2 coat protein",
  "assay": "apparent KD of MS2 coat protein; designed switch direction (-1 OFF switch, 1 ON switch): -1; higher = weaker reporter binding",
  "method_in_brief": "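The buffer was Tris-HCl pH 7.5 with KCl, MgCl2, BSA, DTT, tRNA and Tween-20. In it, SNAP-549-labelled MS2 coat protein was titrated in doubling steps from 0.7 or 1.5 nM to 3 µM over chip-bound RNA switches transcribed by stalled E. coli RNA polymerase on Illumina chips. Apparent KD is the per-design median over clusters of curve fits to normalised fluorescence.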",
  "key": {"[1]": {"settings": "input ligand: microRNA oligo, concentration not stated"}, "[2]": {"settings": "Eterna round: R95, input ligand: microRNA oligo, concentration not stated"}, "[3]": {"settings": "Eterna round: R95, input ligand: FMN 200 uM"}, "[4]": {"settings": "Eterna round: R95, input ligand: none"}},
  "data": [
    {"sequence": "UAUAUAUAGUAAGGAUAUGUAUUUAUAUUAUAAACAGAAGGUACUGACAUGAGGAUCACCCAUGUUUUAGUGUGGGCAUGUAGA [JMF's solution 15] (Eterna round: R96, puzzle: Exclusion NG 1)", "values": [
      {"measurement": "apparent KD of MS2 coat protein", "setting": "[1]", "result": 66.6, "unit": "nM"}
    ]},
    {"sequence": "UAUAUAUAGUAAGGAUAUGUAUUUAUUUUAUCAACAGAAGGUACUGACAUGAGGAUCACCCAUGUUUUAGUGUGGGCAUGUAGA [JMF's solution 26] (Eterna round: R96, puzzle: Exclusion NG 1)", "values": [
      {"measurement": "apparent KD of MS2 coat protein", "setting": "input ligand: FMN 200 uM", "result": 155, "unit": "nM"},
      {"measurement": "apparent KD of MS2 coat protein", "setting": "[1]", "result": 69.7, "unit": "nM"},
      {"measurement": "apparent KD of MS2 coat protein", "setting": "input ligand: none", "result": 85.7, "unit": "nM"}
    ]},
    {"sequence": "UAUAUGUCAGGAUAUCGAUUAGUACGGGAUUCGGUACUGGUUGAGAAGGGACAUGAGGAUCACCCAUGUUUUUC [EX4 #69] (Eterna round: R97, puzzle: Exclusion 4)", "values": [
      {"measurement": "apparent KD of MS2 coat protein", "setting": "input ligand: FMN 200 uM", "result": 284, "unit": "nM"},
      {"measurement": "apparent KD of MS2 coat protein", "setting": "input ligand: none", "result": 36.5, "unit": "nM"}
    ]},
    {"sequence": "UAUAUGUCAGGAUAUCGAUUGGAACAGAAUUUAACAAUGGUCGAGAAGGGACAUGAGGAUCACCCAUGUUCAAC [JR_Ex4_Sub020] (Eterna round: R97, puzzle: Exclusion 4)", "values": [
      {"measurement": "apparent KD of MS2 coat protein", "setting": "input ligand: FMN 200 uM", "result": 27.3, "unit": "nM"},
      {"measurement": "apparent KD of MS2 coat protein", "setting": "input ligand: none", "result": 21.9, "unit": "nM"}
    ]},
    {"sequence": "UAUAUGUGAGGAUAUCAGGUGUGCUAGCGUACUGGUACAUCUGAGAAGGCACAUGAGGAUCACCCAUGUUUCUU [JL-ex4-3.24 Brourd mod] (puzzle: Exclusion 4)", "values": [
      {"measurement": "apparent KD of MS2 coat protein", "setting": "[2]", "result": 24.4, "unit": "nM"}
    ]},
    {"sequence": "UAUCGGGACUGAGGAUAUUCGUUCGAACACGAAGAAGAAGGUAGUGUCAGGGACAUGAGGAUCACCCAUGUGAACUCAGUCCUA [JL ViennaUCT Erinle mod] (Eterna round: R96, puzzle: Exclusion NG 1)", "values": [
      {"measurement": "apparent KD of MS2 coat protein", "setting": "input ligand: FMN 200 uM", "result": 38.3, "unit": "nM"},
      {"measurement": "apparent KD of MS2 coat protein", "setting": "[1]", "result": 33.7, "unit": "nM"},
      {"measurement": "apparent KD of MS2 coat protein", "setting": "input ligand: none", "result": 38.3, "unit": "nM"}
    ]},
    {"sequence": "UAUGACUGAGGAUAUUGUACUGCUGACAUGAGGAUCACCCAUGUAUGCUAACUCGGCCGUCGAGAAGGCAGUUAUG [BotMod 26 - Jieux - Exclusion 5] (Eterna round: R97, puzzle: Exclusion 5)", "values": [
      {"measurement": "apparent KD of MS2 coat protein", "setting": "input ligand: FMN 200 uM", "result": 16.5, "unit": "nM"},
      {"measurement": "apparent KD of MS2 coat protein", "setting": "input ligand: none", "result": 52, "unit": "nM"}
    ]},
    {"sequence": "UAUGGUUAAGUCAGGAUAUGCACGCAGAGAACAAAGCAGAAGGGACAUGAGGAUCACCCAUGUAAAGUCGUGUU [Ex4 #77] (Eterna round: R97, puzzle: Brourd's mod of Exclusion 4)", "values": [
      {"measurement": "apparent KD of MS2 coat protein", "setting": "input ligand: FMN 200 uM", "result": 31.2, "unit": "nM"},
      {"measurement": "apparent KD of MS2 coat protein", "setting": "input ligand: none", "result": 23, "unit": "nM"}
    ]},
    {"sequence": "UAUGGUUAAGUCAGGAUAUGCUCGUAGUGGUCUAUGCAGAAGGGACAUGAGGAUCACCCAUGUAUGGUCGUGUU [Ex4 #68] (Eterna round: R97, puzzle: Brourd's mod of Exclusion 4)", "values": [
      {"measurement": "apparent KD of MS2 coat protein", "setting": "input ligand: FMN 200 uM", "result": 119, "unit": "nM"},
      {"measurement": "apparent KD of MS2 coat protein", "setting": "input ligand: none", "result": 106, "unit": "nM"}
    ]},
    {"sequence": "UAUGUUGUUGUGAGGAUAUACUUAGUUUGACCGUAGUAGAAGGCACAUGAGGAUCACCCAUGUAGAUGCUUGGU [JR_BME4_Sub006] (puzzle: Brourd's mod of Exclusion 4)", "values": [
      {"measurement": "apparent KD of MS2 coat protein", "setting": "[2]", "result": 5.53, "unit": "nM"}
    ]},
    {"sequence": "UAUGUUGUUGUGAGGAUAUACUUUGUUUGGUCGUAGUAGAAGGCACAUGAGGAUCACCCAUGUAGAUUUUUGGU [JR_BME4_Sub009] (puzzle: Brourd's mod of Exclusion 4)", "values": [
      {"measurement": "apparent KD of MS2 coat protein", "setting": "[2]", "result": 20, "unit": "nM"}
    ]},
    {"sequence": "UAUUAACAAGCUAGAUCUUACAUGAGGAUCACCCAUGUGCUCGUCUUAUAAGGUACUGUGACGAAAGUCACGGUACC [Sensor 3, v1 - 77] (puzzle: Sensor v3, turn-off variant 1)", "values": [
      {"measurement": "apparent KD of MS2 coat protein", "setting": "[3]", "result": 22.7, "unit": "nM"},
      {"measurement": "apparent KD of MS2 coat protein", "setting": "[2]", "result": 149, "unit": "nM"},
      {"measurement": "apparent KD of MS2 coat protein", "setting": "[4]", "result": 22.5, "unit": "nM"}
    ]},
    {"sequence": "UAUUAGCAAGCGAGAUCCCACAUGAGGAUCACCCAUGUGCUCGUCUUAUAAAAGACUGUGACGAAAGUCACGGUCAC [Mat - Sensor, turn-off var - Eli Mod - D21] (Eterna round: R97, puzzle: Sensor, turn-off variant 1)", "values": [
      {"measurement": "apparent KD of MS2 coat protein", "setting": "input ligand: FMN 200 uM", "result": 14.6, "unit": "nM"},
      {"measurement": "apparent KD of MS2 coat protein", "setting": "input ligand: none", "result": 15.7, "unit": "nM"}
    ]},
    {"sequence": "UAUUAGCAAGCGAGAUCCCACAUGAGGAUCACCCAUGUGCUCGUCUUAUAUAAGGUACUGUACGAUAGUACGGUACC [Mat - Sensor, turn-off var - Eli Mod - D28] (Eterna round: R97, puzzle: Sensor, turn-off variant 1)", "values": [
      {"measurement": "apparent KD of MS2 coat protein", "setting": "input ligand: FMN 200 uM", "result": 16.7, "unit": "nM"},
      {"measurement": "apparent KD of MS2 coat protein", "setting": "input ligand: none", "result": 14.6, "unit": "nM"}
    ]},
    {"sequence": "UAUUAGCAAGCGAGAUCCCACAUGAGGAUCACCCAUGUGCUCGUGCAUCCAGAAUUACUGGGUGCAGCUCGUCUUAU [Winner reversed engineered 12] (Eterna round: R97, puzzle: Sensor, turn-off variant 1)", "values": [
      {"measurement": "apparent KD of MS2 coat protein", "setting": "input ligand: FMN 200 uM", "result": 14.9, "unit": "nM"},
      {"measurement": "apparent KD of MS2 coat protein", "setting": "input ligand: none", "result": 14.7, "unit": "nM"}
    ]},
    {"sequence": "UAUUAGCAAGCGAGUCUUCACAUGAGGAUCACCCAUGUGCUCGUCUUAUAAGGUACUGUGACGAAAGUCACGGUACC [Eli 91 v32] (Eterna round: R97, puzzle: Sensor, turn-off variant 1)", "values": [
      {"measurement": "apparent KD of MS2 coat protein", "setting": "input ligand: FMN 200 uM", "result": 15.4, "unit": "nM"},
      {"measurement": "apparent KD of MS2 coat protein", "setting": "input ligand: none", "result": 14.8, "unit": "nM"}
    ]},
    {"sequence": "UAUUAGCAAGUAAGAUCCCACAUGAGGAUCACCCAUGUGCUCGUCAUAUCAGGUACGGAGCGGAAACUCCCGAUAUG [Sensor-V1 #89] (Eterna round: R97, puzzle: Sensor, turn-off variant 1)", "values": [
      {"measurement": "apparent KD of MS2 coat protein", "setting": "input ligand: FMN 200 uM", "result": 106, "unit": "nM"},
      {"measurement": "apparent KD of MS2 coat protein", "setting": "input ligand: none", "result": 95.9, "unit": "nM"}
    ]},
    {"sequence": "UAUUAGCAAGUGAGGUCCCACAUGAGGAUCACCCAUGUGCUCGUCUUAUAAGGUACUGUGACGAUAGUCACGGUACC [Mat - Sensor, turn-off var - Eli Mod - D51] (Eterna round: R97, puzzle: Sensor, turn-off variant 1)", "values": [
      {"measurement": "apparent KD of MS2 coat protein", "setting": "input ligand: FMN 200 uM", "result": 45.4, "unit": "nM"},
      {"measurement": "apparent KD of MS2 coat protein", "setting": "input ligand: none", "result": 45.5, "unit": "nM"}
    ]},
    {"sequence": "UAUUAGCUAGGAUAUACAUGAGGAUCACCCAUGUCACGGGUCAACUUGUCCUAUGCGUGUAGAAGGAGCGACCC [JL Ceriza mod 5] (puzzle: Exclusion 3)", "values": [
      {"measurement": "apparent KD of MS2 coat protein", "setting": "[2]", "result": 18.8, "unit": "nM"}
    ]},
    {"sequence": "UAUUAGUUAGGAUAUACAUGAGGAUCACCCAUGUCACGGGUCCACUUGUCCUAUGCGUGUAGAAGGAGCGACCC [JL Ceriza mod 4] (puzzle: Exclusion 3)", "values": [
      {"measurement": "apparent KD of MS2 coat protein", "setting": "[2]", "result": 19.2, "unit": "nM"}
    ]},
    {"sequence": "UAUUAUCAAGCAAGAUCCCACAUGAGGAUCACCCAUGUGCUCGUCUUAUUUCCGGCCUUAUUGGGCUCUCGUCUAAU [JR_STOV1_v2_Sub094] (Eterna round: R97, puzzle: Sensor, turn-off variant 1)", "values": [
      {"measurement": "apparent KD of MS2 coat protein", "setting": "input ligand: FMN 200 uM", "result": 34, "unit": "nM"},
      {"measurement": "apparent KD of MS2 coat protein", "setting": "input ligand: none", "result": 33.5, "unit": "nM"}
    ]},
    {"sequence": "UAUUAUCAAGCUAGAUCCCACAUGAGGAUCACCCAUGUGCUCGUCUUAAUUCCAGAAUUACUGGGCUCUCGUCUUAU [JR_STOV1_Sub091] (Eterna round: R97, puzzle: Sensor, turn-off variant 1)", "values": [
      {"measurement": "apparent KD of MS2 coat protein", "setting": "input ligand: FMN 200 uM", "result": 45.5, "unit": "nM"},
      {"measurement": "apparent KD of MS2 coat protein", "setting": "input ligand: none", "result": 45.1, "unit": "nM"}
    ]},
    {"sequence": "UAUUCUAGAUAGGAUAUACUUUUUUUUUUUUUCGUAGAAGGAUCUACAUGAGGAUCACCCAUGUUAACAGCAGU [JR_E6_Sub010] (puzzle: Exclusion 6)", "values": [
      {"measurement": "apparent KD of MS2 coat protein", "setting": "[3]", "result": 66.5, "unit": "nM"},
      {"measurement": "apparent KD of MS2 coat protein", "setting": "[2]", "result": 51.6, "unit": "nM"},
      {"measurement": "apparent KD of MS2 coat protein", "setting": "[4]", "result": 40.4, "unit": "nM"}
    ]},
    {"sequence": "UAUUUAUAGCAAGGAUAUGAUUAUUAUUAUUUAUCAGAAGGUGCACAUGAGGAUCACCCAUGUUUUAUAAUUUGUAAUUUAAUU [Title] (Eterna round: R96, puzzle: Exclusion NG 1)", "values": [
      {"measurement": "apparent KD of MS2 coat protein", "setting": "[1]", "result": 40.9, "unit": "nM"}
    ]}
  ]
}
